Measurements: article PMC10673124

Molecular target: Elastase (UniProt P00772)
Chain of UniProt P00772 (P00772 27-266): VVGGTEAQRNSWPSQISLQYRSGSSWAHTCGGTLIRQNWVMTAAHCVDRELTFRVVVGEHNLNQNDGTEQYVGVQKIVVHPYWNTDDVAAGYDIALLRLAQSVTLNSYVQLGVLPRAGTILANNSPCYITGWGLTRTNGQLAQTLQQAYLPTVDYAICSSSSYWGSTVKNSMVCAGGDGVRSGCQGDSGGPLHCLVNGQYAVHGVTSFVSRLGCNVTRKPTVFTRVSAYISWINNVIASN

VGVPGVGVPGVGVPGV [S1 (…)]
elastase inhibitory activity (%), peptide at 10-20 mM, substrate N-Succinyle-Ala-Ala-Ala-pNA: 76.3%
